Data: paper PMC5971111 (Nature structural & molecular biology, 2018)

Target: T1, Sec8 (S. cerevisiae, UniProt P32855 1-1065)
T1 sequence: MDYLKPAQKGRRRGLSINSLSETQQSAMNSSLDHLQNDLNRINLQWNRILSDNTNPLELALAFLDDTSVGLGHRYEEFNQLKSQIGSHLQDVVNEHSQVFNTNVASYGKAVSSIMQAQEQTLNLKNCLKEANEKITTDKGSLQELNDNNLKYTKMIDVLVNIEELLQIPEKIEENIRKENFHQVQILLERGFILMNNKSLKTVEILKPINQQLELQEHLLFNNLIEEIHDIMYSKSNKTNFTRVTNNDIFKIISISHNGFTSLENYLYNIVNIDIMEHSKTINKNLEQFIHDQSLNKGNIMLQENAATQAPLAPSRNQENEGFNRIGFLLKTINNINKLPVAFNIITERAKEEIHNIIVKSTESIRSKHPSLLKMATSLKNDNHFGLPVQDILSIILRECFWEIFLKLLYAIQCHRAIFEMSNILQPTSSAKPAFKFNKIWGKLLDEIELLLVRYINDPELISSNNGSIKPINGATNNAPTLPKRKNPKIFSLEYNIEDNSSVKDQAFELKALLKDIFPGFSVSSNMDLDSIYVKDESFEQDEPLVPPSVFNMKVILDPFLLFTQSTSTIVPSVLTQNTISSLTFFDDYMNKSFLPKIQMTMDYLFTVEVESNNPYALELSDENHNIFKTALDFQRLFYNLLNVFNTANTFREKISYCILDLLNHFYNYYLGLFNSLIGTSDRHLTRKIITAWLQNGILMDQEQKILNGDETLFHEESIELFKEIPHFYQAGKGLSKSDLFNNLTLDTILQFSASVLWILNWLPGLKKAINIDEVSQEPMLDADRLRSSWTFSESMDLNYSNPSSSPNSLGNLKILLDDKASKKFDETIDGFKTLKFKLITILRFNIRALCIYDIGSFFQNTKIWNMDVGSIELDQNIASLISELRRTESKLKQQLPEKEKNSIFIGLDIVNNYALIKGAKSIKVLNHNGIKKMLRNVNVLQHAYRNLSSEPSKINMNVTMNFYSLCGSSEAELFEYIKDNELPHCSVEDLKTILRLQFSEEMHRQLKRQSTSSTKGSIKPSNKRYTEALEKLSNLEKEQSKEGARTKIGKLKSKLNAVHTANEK
Assay: […]

B1: Exo84 (natural protein)
chain: MVEFSLKKARNNWKHVKKSASSPAKQKTPPSPAKPKQKTKKNPYSDLKDPATSYTLPTINARERSRVATSMQRRLSIHNTNYAPPTLDYSMPLPDMPNMIVPNDNVDSSHNNSSFTTENESVSSKGPSNSLNLSTADLSLNDSSYNKVPARSAMRNTVNPSGSNDPFNNSTSLRKMLANPHFNAKDFVHDKLGNASAITIDKFTSNLTDLSIQVQEEVKLNINKSYNEIMTVNNDLNVAMLELKRVRANINDLNEVLDQCTKIAEKRLQLQDQIDQERQGNFNNVESHSNSPALLPPLKAGQNGNLMRRDRSSVLILEKFWDTELDQLFKNVEGAQKFINSTKGRHILMNSANWMELNTTTGKPLQMVQIFILNDLVLIADKSRDKQNDFIVSQCYPLKDVTVTQEEFSTKRLLFKFSNSNSSLYECRDADECSRLLDVIRKAKDDLCDIFHVEEENSKRIRESFRYLQSTQQTPGRENNRSPNKNKRRSMGGSITPGRNVTGAMDQYLLQNLTLSMHSRPRSRDMSSTAQRLKFLDEGVEEIDIELARLRFESAVETLLDIESQLEDLSERISDEELMLLNLISLKIEQRREAISSKLSQSILSSNEIVHLKSGTENMIKLGLPEQALDLFLQNRSNFIQDLILQIGSVDNPTNYLTQLAVIRFQTIKKTVEDFQDIFKELGAKISSILVDWCSDEVDNHFKLIDKQLLNDEMLSPGSIKSSRKQIDGLKAVGLDFVYKLDEFIKKNSDKIR
binding result: binds
